According to the supplement of paper PMC7877785:
± gives the uncertainty stated by the source.

Assay: self-splicing fitness, log relative to wild type (ln ratio); higher = more splicing; Tetrahymena group I intron in knt gene, E. coli kanamycin selection, DiMSum; sequences stand for … in CUCUCU…GGAGGGAAAAGUUAUCAGGCAUGCACCUGGUAGCUAGUCUUUAAACCAAUAGAUUGCAUCGGUUUAAAAGGCAAGACCGUCAAAUUGCGGGAAAGGGGUCAACAGCCGUUCAGUACCAAGUCUCAGGGGAAACUUUGAGAUGGCCUUGCAAAGGGUAUGGUAAUAAGCUGACGGACAUGGUCCUAACCACGCAGCCAAGUCCUAAGUCAACAGAUCUUCUGUUGAUAUGGAUGCAGUUCACAGACUAAAUGUCGGUCGGGGAAGAUGUAUUCUUCUCAUAAGAUAUAGUCGGACCUCUCCUUAAUGGGAGCUAGCGGAUGAAGUGAUGCAACACUGGAGCCGCUGGGAACUAAUUUGUAUGCGAAAGUAUAUUGAUUAGUUUUGGAGUACUCGUGGUCG
In short: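 A randomised library covering all eight P1ex-region intron nucleotides was built with the intron in the knt kanamycin-resistance gene on pET-22b(+) and held in E. coli BL21(DE3). Cells were grown overnight at 37°C or 30°C on LB agar, with or without 25 μg/mL kanamycin, plus 100 μg/mL carbenicillin, 50 μM IPTG and 0.2% rhamnose, and pooled colonies were amplicon-sequenced on an Illumina HiSeq 2500. DiMSum fitness is the error-weighted combination of wild-type-normalised replicate fold changes, kanamycin versus none.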

| Sequence | self-splicing fitness (ln) (30 °C) | self-splicing fitness (ln) (37 °C) |
| --- | --- | --- |
| UAGAAGCAAUAUUACGCCUG | -0.128 ± 0.091 | 0.251 ± 0.12 |
| UAGAAGCAAUAUUACGCGGU | -4.94 ± 0.42 | -2.37 ± 0.24 |
| UAGAAGCAAUAUUACGCGUC | -2.53 ± 0.18 | -1.56 ± 0.18 |
| UAGAAGCAAUAUUACGCUAC |  | -2.23 ± 0.31 |
| UAGAAGCAAUAUUACGGAAA | -2.02 ± 0.17 | -1.41 ± 0.24 |
| UAGAAGCAAUAUUACGGCCA | -0.205 ± 0.077 | -0.611 ± 0.081 |
| UAGAAGCAAUAUUACGGGGU | -3.13 ± 0.17 | -1.27 ± 0.22 |
| UAGAAGCAAUAUUACGGUCA | -0.346 ± 0.095 | -0.338 ± 0.11 |
| UAGAAGCAAUAUUACGGUCC | -1.92 ± 0.22 | -1.57 ± 0.2 |
| UAGAAGCAAUAUUACGGUGU | -3.23 ± 0.14 | -3.06 ± 0.15 |
| UAGAAGCAAUAUUACGUAGC | -3.74 ± 0.26 | -2.43 ± 0.23 |
| UAGAAGCAAUAUUACGUGAG | -0.573 ± 0.06 | -0.716 ± 0.079 |
| UAGAAGCAAUAUUACGUUGG | -2.54 ± 0.14 | -1.55 ± 0.14 |
| UAGAAGCAAUAUUACGUUGU | -4.33 ± 0.18 | -2.47 ± 0.14 |
| UAGCAGCAAUAUUACGAAGU | -1.64 ± 0.13 | -1.59 ± 0.3 |
| UAGCAGCAAUAUUACGAAUU | -2.58 ± 0.18 | -2.66 ± 0.24 |
| UAGCAGCAAUAUUACGACCU | -0.287 ± 0.13 | 0.328 ± 0.13 |
| UAGCAGCAAUAUUACGAUAA | -1.07 ± 0.12 | 0.133 ± 0.13 |
| UAGCAGCAAUAUUACGAUCA | 0.112 ± 0.088 | 0.169 ± 0.099 |
| UAGCAGCAAUAUUACGAUGA | -0.884 ± 0.069 | -0.42 ± 0.066 |
| UAGCAGCAAUAUUACGCAAU | -2.82 ± 0.13 | -1.68 ± 0.11 |
| UAGCAGCAAUAUUACGCACC | -0.936 ± 0.16 | -0.423 ± 0.16 |
| UAGCAGCAAUAUUACGCAGA | -1.67 ± 0.14 | -1.33 ± 0.088 |
| UAGCAGCAAUAUUACGCCCC | -1.6 ± 0.23 | -1.56 ± 0.31 |
| UAGCAGCAAUAUUACGCUGA | -2.19 ± 0.15 | -1.71 ± 0.18 |

| Sequence | self-splicing fitness (ln) (30 °C) | self-splicing fitness (ln) (37 °C) |
| --- | --- | --- |
| UAGCAGCAAUAUUACGCUGG | -2.87 ± 0.13 | -2.45 ± 0.15 |
| UAGCAGCAAUAUUACGGGAU | -4.22 ± 0.39 | -2.7 ± 0.26 |
| UAGCAGCAAUAUUACGGGGC | -3.58 ± 0.21 | -3.17 ± 0.27 |
| UAGCAGCAAUAUUACGGUGU | -3.53 ± 0.15 | -1.84 ± 0.15 |
| UAGCAGCAAUAUUACGUACG | -1.2 ± 0.072 | -0.47 ± 0.1 |
| UAGCAGCAAUAUUACGUGCC | -1.84 ± 0.17 | -1.2 ± 0.21 |
| UAGCAGCAAUAUUACGUUCA | 0.0863 ± 0.062 | 0.0609 ± 0.1 |
| UAGGAGCAAUAUUACGAGAC | -2.26 ± 0.29 |  |
| UAGGAGCAAUAUUACGAGGA | -2.78 ± 0.37 |  |
| UAGGAGCAAUAUUACGAGUG | -3.74 ± 0.33 | -1.43 ± 0.17 |
| UAGGAGCAAUAUUACGAGUU | -3.51 ± 0.27 | -2.48 ± 0.33 |
| UAGGAGCAAUAUUACGAUAG | -4.07 ± 0.28 | -1.95 ± 0.2 |
| UAGGAGCAAUAUUACGAUCG | -1.65 ± 0.16 | -0.888 ± 0.21 |
| UAGGAGCAAUAUUACGCCUG | -3.57 ± 0.47 | -1.23 ± 0.33 |
| UAGGAGCAAUAUUACGCGAC |  | -1.74 ± 0.38 |
| UAGGAGCAAUAUUACGCGGU | -1.52 ± 0.23 |  |
| UAGGAGCAAUAUUACGGCUU | -4.37 ± 0.28 | -3.13 ± 0.4 |
| UAGGAGCAAUAUUACGGGUC | -2.64 ± 0.19 |  |
| UAGGAGCAAUAUUACGGUGA |  | -1.08 ± 0.27 |
| UAGGAGCAAUAUUACGGUGU | -3.4 ± 0.3 | -2.9 ± 0.43 |
| UAGGAGCAAUAUUACGUAAC | -4.94 ± 0.41 | -2.48 ± 0.22 |
| UAGGAGCAAUAUUACGUAAG | -3.22 ± 0.16 | -2.01 ± 0.16 |
| UAGGAGCAAUAUUACGUAUG | -3.04 ± 0.22 | -1.71 ± 0.16 |
| UAGGAGCAAUAUUACGUUCG | -0.918 ± 0.2 | -0.576 ± 0.19 |
| UAGGAGCAAUAUUACGUUUA | -2.18 ± 0.27 | -0.145 ± 0.17 |

| Sequence | self-splicing fitness (ln) (30 °C) | self-splicing fitness (ln) (37 °C) |
| --- | --- | --- |
| UAGUAGCAAUAUUACGAACA |  | -0.405 ± 0.42 |
| UAGUAGCAAUAUUACGACAA | -0.402 ± 0.15 | -0.175 ± 0.14 |
| UAGUAGCAAUAUUACGACAC |  | -1.67 ± 0.26 |
| UAGUAGCAAUAUUACGAGAA |  | -1.76 ± 0.43 |
| UAGUAGCAAUAUUACGAUCG | -0.771 ± 0.095 | 0.251 ± 0.12 |
| UAGUAGCAAUAUUACGCGCG | -0.283 ± 0.077 | -0.281 ± 0.1 |
| UAGUAGCAAUAUUACGCGCU | -1.46 ± 0.16 | -0.161 ± 0.16 |
| UAGUAGCAAUAUUACGCGUG | -1.03 ± 0.12 | -0.705 ± 0.15 |
| UAGUAGCAAUAUUACGCUGA | -2.25 ± 0.39 | -0.637 ± 0.11 |
| UAGUAGCAAUAUUACGCUUA | -1.15 ± 0.14 | -0.806 ± 0.13 |
| UAGUAGCAAUAUUACGGCAU | -2.2 ± 0.15 | -0.67 ± 0.16 |
| UAGUAGCAAUAUUACGGGCU | -1.39 ± 0.2 | -2.47 ± 0.27 |
| UAGUAGCAAUAUUACGGGGA | -2.44 ± 0.33 | -3.25 ± 0.47 |
| UAGUAGCAAUAUUACGGUAC | -3.85 ± 0.48 |  |
| UAGUAGCAAUAUUACGGUCG | -0.566 ± 0.097 | -0.103 ± 0.12 |
| UAGUAGCAAUAUUACGUAAU | -2.43 ± 0.13 | -2.19 ± 0.13 |
| UAGUAGCAAUAUUACGUCAA | -2.07 ± 0.23 | -2.44 ± 0.18 |
| UAGUAGCAAUAUUACGUCCA | -0.915 ± 0.37 |  |
| UAGUAGCAAUAUUACGUCGC | -4.1 ± 0.43 | -2.3 ± 0.28 |
| UAGUAGCAAUAUUACGUGAC | -2.58 ± 0.15 | -2.47 ± 0.18 |
| UAGUAGCAAUAUUACGUGGC |  | -2.59 ± 0.44 |
| UAUAAGCAAUAUUACGAAGU | -3.7 ± 0.35 | -2.71 ± 0.38 |
| UAUAAGCAAUAUUACGACCG | -0.137 ± 0.12 | -0.1 ± 0.16 |
| UAUAAGCAAUAUUACGAGAU | -4.28 ± 0.31 | -2.54 ± 0.28 |
| UAUAAGCAAUAUUACGCAUC | -3.74 ± 0.2 | -2.38 ± 0.17 |

| Sequence | self-splicing fitness (ln) (30 °C) | self-splicing fitness (ln) (37 °C) |
| --- | --- | --- |
| UAUAAGCAAUAUUACGCCUC | -2.74 ± 0.38 | -2.08 ± 0.36 |
| UAUAAGCAAUAUUACGCGUG | -1 ± 0.057 | -0.488 ± 0.075 |
| UAUAAGCAAUAUUACGCUAU | -3.91 ± 0.28 | -1.92 ± 0.18 |
| UAUAAGCAAUAUUACGCUCC | -1.29 ± 0.24 | -1.02 ± 0.28 |
| UAUAAGCAAUAUUACGCUUC | -3.58 ± 0.38 |  |
| UAUAAGCAAUAUUACGGAGC |  | -2.14 ± 0.28 |
| UAUAAGCAAUAUUACGGGAA | -2.77 ± 0.2 | -1.5 ± 0.18 |
| UAUAAGCAAUAUUACGGGUC | -3.27 ± 0.34 | -1.78 ± 0.24 |
| UAUAAGCAAUAUUACGGUUU | -2.58 ± 0.11 | -1.24 ± 0.099 |
| UAUAAGCAAUAUUACGUCUA | 0.561 ± 0.077 | 0.494 ± 0.1 |
| UAUAAGCAAUAUUACGUGCA | -0.333 ± 0.085 | -0.0529 ± 0.1 |
| UAUAAGCAAUAUUACGUGGC | -3.47 ± 0.32 | -2.73 ± 0.44 |
| UAUAAGCAAUAUUACGUUAG | -2.08 ± 0.14 | -0.812 ± 0.14 |
| UAUCAGCAAUAUUACGACAA | -0.495 ± 0.086 | 0.237 ± 0.097 |
| UAUCAGCAAUAUUACGACUA | 0.123 ± 0.068 | 0.517 ± 0.095 |
| UAUCAGCAAUAUUACGACUU | -0.502 ± 0.067 | -0.0466 ± 0.074 |
| UAUCAGCAAUAUUACGAGAC | -2.38 ± 0.33 | -1.75 ± 0.44 |
| UAUCAGCAAUAUUACGAGUG | -0.353 ± 0.058 | -0.197 ± 0.072 |
| UAUCAGCAAUAUUACGCAAU | -1.96 ± 0.11 | -0.74 ± 0.1 |
| UAUCAGCAAUAUUACGCAUU | -1.42 ± 0.076 | -0.197 ± 0.09 |
| UAUCAGCAAUAUUACGCCUG | -0.368 ± 0.1 | -0.425 ± 0.1 |
| UAUCAGCAAUAUUACGCGGC | -2.77 ± 0.31 | -1.62 ± 0.24 |
| UAUCAGCAAUAUUACGCUAA | -0.647 ± 0.084 | 0.529 ± 0.099 |
| UAUCAGCAAUAUUACGGAUC | -0.475 ± 0.11 | -0.265 ± 0.13 |
| UAUCAGCAAUAUUACGGCCG | -0.163 ± 0.11 | 0.391 ± 0.16 |
